Results taken from publication PMC10517016, “SCARB2 drives hepatocellular carcinoma tumor initiating cells via enhanced MYC transcriptional activity” (Nature Communications, 2023).

Molecular target: T1, Purified His-tagged MYC (UniProt P01106 1-454)
T1 construct: MYC, purified recombinant protein bought from Origene; also called MYC (TP760019); source: bought: Origene (TP760019), purified
Assay: co-IP; in vitro: 5 ug of each purified protein mixed in 100 ul of 1% NP-40, 120 mM NaCl, 40 mM tris-HCl pH 7.4, 1.5 mM sodium orthovanadate, 50 mM sodium fluoride, 10 mM sodium pyrophosphate, protease inhibitors, 6 h at 4 °C, then immunoprecipitation
Conditions: both partners purified

T1 sequence (P01106 whole entry): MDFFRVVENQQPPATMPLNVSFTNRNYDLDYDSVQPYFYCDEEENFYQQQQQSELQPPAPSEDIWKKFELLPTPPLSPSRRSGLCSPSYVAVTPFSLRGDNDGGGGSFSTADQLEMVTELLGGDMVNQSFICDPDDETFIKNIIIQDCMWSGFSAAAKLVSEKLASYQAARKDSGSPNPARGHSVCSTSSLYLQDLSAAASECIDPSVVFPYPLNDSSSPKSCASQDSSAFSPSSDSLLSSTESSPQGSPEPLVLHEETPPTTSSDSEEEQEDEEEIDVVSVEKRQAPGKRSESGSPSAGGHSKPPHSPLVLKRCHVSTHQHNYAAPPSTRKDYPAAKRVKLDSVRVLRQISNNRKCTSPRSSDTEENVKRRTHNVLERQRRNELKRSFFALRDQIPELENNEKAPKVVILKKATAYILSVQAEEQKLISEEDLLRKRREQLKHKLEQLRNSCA

binding result: binds
B1: Purified GST-tagged HDAC3 (enzyme, UniProt O15379 1-428, looked up)
chain: MAKTVAYFYDPDVGNFHYGAGHPMKPHRLALTHSLVLHYGLYKKMIVFKPYQASQHDMCRFHSEDYIDFLQRVSPTNMQGFTKSLNAFNVGDDCPVFPGLFEFCSRYTGASLQGATQLNNKICDIAINWAGGLHHAKKFEASGFCYVNDIVIGILELLKYHPRVLYIDIDIHHGDGVQEAFYLTDRVMTVSFHKYGNYFFPGTGDMYEVGAESGRYYCLNVPLRDGIDDQSYKHLFQPVINQVVDFYQPTCIVLQCGADSLGCDRLGCFNLSIRGHGECVEYVKSFNIPLLVLGGGGYTVRNVARCWTYETSLLVEEAISEELPYSEYFEYFAPDFTLHPDVSTRIENQNSRQYLDQIRQTIFENLKMLNHAPSVQIHDVPADLLTYDRTDEADAEERGPEENYSRPEAPNEFYDGDHDNDKESDVEI
notes: Histone deacetylase 3, purified recombinant protein bought from Sino Biological; also called HDAC3 (11511-H20B); source: bought: Sino Biological (11511-H20B), purified
